Results taken from patent US20230201308A1, “TREATMENT OF CORONAVIRUS INFECTION WITH […]” (Eiger Biopharmaceuticals, Inc., priority 2020, published 2023).
Read-outs that look alike come from different tables or passages of the source.

Assays:
[1] = tested on: SARS-CoV-2 (2019-nCoV/USA-WA1/2020); format: cell-based; settings: HAE pretreated basolaterally 24 hr
[2] = Third trial (TOGETHER): treatment emergent adverse events and drug adherence; format: in vivo, human
Source text: An adverse event (AE) is any adverse change from the participant's baseline (pre-treatment) condition, including intercurrent illness which occurs during the course of the trial, after the consent form has been signed, whether the event is considered related to treatment or not.
A serious adverse event (SAE) is any adverse event that at any dose: • results in death (grade 5 event) • is life-threatening (grade 4 event) • requires inpatient hospitalization or prolongation of existing hospitalization • results in persistent or significant disability or incapacity • is a congenital anomaly/birth defect
Study personnel collected outcome data via in-person, and via telephone or WhatsApp using video-teleconferencing on Days 1, 2, 3, 4, 5, 7, 10, 14, and 28. Adverse events were recorded at the time they occurred. All serious and non-serious adverse events were reported to study personnel as per local regulatory requirements. Reportable adverse events included serious adverse events, adverse events resulting in study medication discontinuation, and adverse events assessed as possibly related to study medication.

[3] = ITT preliminary, n=916 vs placebo 1020
[4] = Treated within 3 days of symptom onset, n=539 vs placebo 586
[5] = Treated within 5 days of symptom onset, n=800 vs placebo 879
[6] = Unvaccinated population, n=143 vs placebo 176

B1: pegylated interferon lambda-1a (protein)
chain: MKPTTTGKGCHIGRFKSLSPQELASFKKARDALEESLKLKNWSCSSPVFPGNWDLRLLQVRERPVALEAELALTLKVLEAAAGPALEDVLDQPLHTLHHILSQLQACIQPQPTAGPRPRGRLHHWLHRLQEAPKKESAGCLEASVTFNLFRLLTRDLKYVADGNLSLRTSTHPEST
modifications: PEG
notes: 180 mcg subcutaneous injection
With B1 the “SARS-CoV-2 infectious virus production (titer of apical washes, plaque assay)” value ([1]; […]) was “reducing viral load in infected cells”, the “SARS-CoV-2 infectious virus production (titer of apical washes, plaque assay)” value ([1]; […];, listed as peg-IFN-λ1) was “potent dose dependent reduction” and the “TEAE, Grade 1, % of patients” value [2, 3] was “(1.7%)”. For the same molecule, the “TEAE, Grade 1, RR (95% CrI) vs placebo” value [2, 3] was 0.75 (0.40, 1.38), the “TEAE, Grade 2, % of patients” value [2, 3] was “(9%)” and the “TEAE, Grade 2, RR (95% CrI) vs placebo” value [2, 3] was 1.00 (0.75, 1.33). The “TEAE, Grade 3, % of patients” value [2, 3] was “(2.2%)”, the “TEAE, Grade 3, RR (95% CrI) vs placebo” value [2, 3] was 0.70 (0.40, 1.20) and the “TEAE, Grade 4, % of patients” value [2, 3] was “(0.8%)”. The “TEAE, Grade 4, RR (95% CrI) vs placebo” value [2, 3] was 1.11 (0.41, 3.05), the “TEAE, Grade 5, % of patients” value [2, 3] was “(0.3%)” and the “TEAE, Grade 5, RR (95% CrI) vs placebo” value [2, 3] was 0.88 (0.21, 3.40). For the same molecule, the “Number experiencing TEAEs: %” value ([2]; N = 931) was “(14.7%)”, the “Number experiencing TEAEs: n” value ([2]; N = 931) was 137 and the “Number experiencing possibly treatment-related TEAS: %” value ([2]; N = 931) was “(0.4%)”. The “Number experiencing possibly treatment-related TEAS: n” value ([2]; N = 931) was 4, the “Number experiencing serious TEAEs: %” value ([2]; N = 931) was “(3.4%)” and the “Number experiencing serious TEAEs: n” value ([2]; N = 931) was 32. The “TEAE, Grade 1: %” value ([2]; N = 931) was “(2.9%)”, the “TEAE, Grade 1: n” value ([2]; N = 931) was 27 and the “TEAE, Grade 2: %” value ([2]; N = 931) was “(9.2%)”. For the same molecule, the “TEAE, Grade 2: n” value ([2]; N = 931) was 86, the “TEAE, Grade 3: %” value ([2]; N = 931) was “(2.3%)” and the “TEAE, Grade 3: n” value ([2]; N = 931) was 21. For the same molecule, the “TEAE, Grade 4: %” value ([2]; N = 931) was “(0.9%)”, the “TEAE, Grade 4: n” value ([2]; N = 931) was 8 and the “TEAE, Grade 5: %” value ([2]; N = 931) was “(0.4%)”. For the same molecule, the “TEAE, Grade 5: n” value ([2]; N = 931) was 4, the “Number experiencing TEAEs: Probability of Superiority” value ([2]; N = 931 vs placebo N = 1018) was 88.5 and the “Number experiencing TEAEs: RR (95% CrI), estimated treatment effect” value ([2]; N = 931 vs placebo N = 1018) was 0.88 (0.71, 1.08). For the same molecule, the “Number experiencing possibly treatment-related TEAS: Probability of Superiority” value ([2]; N = 931 vs placebo N = 1018) was 82.8, the “Number experiencing possibly treatment-related TEAS: RR (95% CrI), estimated treatment effect” value ([2]; N = 931 vs placebo N = 1018) was 0.59 (0.18, 1.74) and the “Number experiencing serious TEAEs: Probability of Superiority” value ([2]; N = 931 vs placebo N = 1018) was 93.6. The “Number experiencing serious TEAEs: RR (95% CrI), estimated treatment effect” value ([2]; N = 931 vs placebo N = 1018) was 0.72 (0.46, 1.10), the “TEAE, Grade 1: Probability of Superiority” value ([2]; N = 931 vs placebo N = 1018) was 84.5 and the “TEAE, Grade 1: RR (95% CrI), estimated treatment effect” value ([2]; N = 931 vs placebo N = 1018) was 0.78 (0.48, 1.26). For the same molecule, the “TEAE, Grade 2: Probability of Superiority” value ([2]; N = 931 vs placebo N = 1018) was 64.0, the “TEAE, Grade 2: RR (95% CrI), estimated treatment effect” value ([2]; N = 931 vs placebo N = 1018) was 0.95 (0.72, 1.25) and the “TEAE, Grade 3: Probability of Superiority” value ([2]; N = 931 vs placebo N = 1018) was 93.9. For the same molecule, the “TEAE, Grade 3: RR (95% CrI), estimated treatment effect” value ([2]; N = 931 vs placebo N = 1018) was 0.66 (0.39, 1.11), the “TEAE, Grade 4: Probability of Superiority” value ([2]; N = 931 vs placebo N = 1018) was 42.6 and the “TEAE, Grade 4: RR (95% CrI), estimated treatment effect” value ([2]; N = 931 vs placebo N = 1018) was 1.09 (0.42, 2.86). The “TEAE, Grade 5: Probability of Superiority” value ([2]; N = 931 vs placebo N = 1018) was 67.5, the “TEAE, Grade 5: RR (95% CrI), estimated treatment effect” value ([2]; N = 931 vs placebo N = 1018) was 0.76 (0.22, 2.46) and the “TEAE, Grade 1, % of patients” value [2, 4] was “(0.9%)”. For the same molecule, the “TEAE, Grade 1, RR (95% CrI) vs placebo” value [2, 4] was 0.53 (0.18, 1.38), the “TEAE, Grade 2, % of patients” value [2, 4] was “(9.8%)” and the “TEAE, Grade 2, RR (95% CrI) vs placebo” value [2, 4] was 1.13 (0.78, 1.63). For the same molecule, the “TEAE, Grade 3, % of patients” value [2, 4] was “(1.3%)”, the “TEAE, Grade 3, RR (95% CrI) vs placebo” value [2, 4] was 0.47 (0.19, 1.05) and the “TEAE, Grade 4, % of patients” value [2, 4] was “(0.7%)”. The “TEAE, Grade 4, RR (95% CrI) vs placebo” value [2, 4] was 3.01 (0.61, 23.67), the “TEAE, Grade 5, % of patients” value [2, 4] was “(0%)” and the “TEAE, Grade 5, RR (95% CrI) vs placebo” value [2, 4] was 0.21 (0.01, 1.64). For the same molecule, the “TEAE, Grade 1, % of patients” value [2, 5] was “(1.8%)”, the “TEAE, Grade 1, RR (95% CrI) vs placebo” value [2, 5] was 0.78 (0.40, 1.51) and the “TEAE, Grade 2, % of patients” value [2, 5] was “(8.9%)”. For the same molecule, the “TEAE, Grade 2, RR (95% CrI) vs placebo” value [2, 5] was 0.95 (0.70, 1.29), the “TEAE, Grade 3, % of patients” value [2, 5] was “(1.9%)” and the “TEAE, Grade 3, RR (95% CrI) vs placebo” value [2, 5] was 0.56 (0.30, 1.01). The “TEAE, Grade 4, % of patients” value [2, 5] was “(0.8%)”, the “TEAE, Grade 4, RR (95% CrI) vs placebo” value [2, 5] was 1.99 (0.58, 7.88) and the “TEAE, Grade 5, % of patients” value [2, 5] was “(0.4%)”. The “TEAE, Grade 5, RR (95% CrI) vs placebo” value [2, 5] was 0.86 (0.20, 3.40), the “TEAE, Grade 1, % of patients” value [2, 6] was 5.6% and the “TEAE, Grade 1, RR (95% CrI) vs placebo” value [2, 6] was 1.23 (0.49, 3.08). The “TEAE, Grade 2, % of patients” value [2, 6] was 11.9%, the “TEAE, Grade 2, RR (95% CrI) vs placebo” value [2, 6] was 1.16 (0.63, 2.16) and the “TEAE, Grade 3, % of patients” value [2, 6] was 3.5%. For the same molecule, the “TEAE, Grade 3, RR (95% CrI) vs placebo” value [2, 6] was 0.60 (0.21, 1.53), the “TEAE, Grade 4, % of patients” value [2, 6] was 1.4% and the “TEAE, Grade 4, RR (95% CrI) vs placebo” value [2, 6] was 0.58 (0.12, 2.22). For the same molecule, the “TEAE, Grade 5, % of patients” value [2, 6] was 0 (0%), the “TEAE, Grade 5, RR (95% CrI) vs placebo” value [2, 6] was 1.21 (0.03, 47.34) and the “treatment emergent adverse events compared to placebo” value ([2]; final analysis, listed as peginterferon lambda) was “no important differences”. For the same molecule, the “Premature discontinuation, Request by participant to terminate study treatment, %” value ([2]; n=916) was “(0.0%)”, the “Premature discontinuation, reason Hospitalization, %” value ([2]; n=916) was “(0.0%)” and the “Premature discontinuation, reason Non-compliance with Study Therapy, %” value ([2]; n=916) was “(0.0%)”. For the same molecule, the “Premature discontinuation, reason Other, %” value ([2]; n=916) was “(0.0%)”, the “Prematurely discontinued study drug, %” value ([2]; n=916, within 28 days of randomization) was “(0.0%)” and the “incidence of any adverse event compared with placebo” value ([2]; preliminary ITT) was “indistinguishable”.
